# Source: patent publication US20130323187A1
# * marks the point of attachment. Decanoyl = CCCCCCCCCC(=O)*; CH2Cl = ClC*
# T1: D-9Rac/am
# T1 sequence: XXXXXXXXXXXXX
# T2: D-6R
# T2 sequence: XXXXXXXXXX
# T3: Decanoyl-Arg-Val-Lys-Arg-CMK (FI-I, CALBIOCHEM)
# T3 sequence: RVKR
# What was measured:
# D-9Rac/am = system: T1, D-9Rac/am
# D-6R = system: T2, D-6R
# [1] = system: T3, Decanoyl-Arg-Val-Lys-Arg-CMK (FI-I, CALBIOCHEM)
# Recombinant furin = assay: Ki for inhibition of furin, given as the comparison in the Boc-RVRR-MCA enzyme assay
# Chain of Recombinant furin (P09958 108-715): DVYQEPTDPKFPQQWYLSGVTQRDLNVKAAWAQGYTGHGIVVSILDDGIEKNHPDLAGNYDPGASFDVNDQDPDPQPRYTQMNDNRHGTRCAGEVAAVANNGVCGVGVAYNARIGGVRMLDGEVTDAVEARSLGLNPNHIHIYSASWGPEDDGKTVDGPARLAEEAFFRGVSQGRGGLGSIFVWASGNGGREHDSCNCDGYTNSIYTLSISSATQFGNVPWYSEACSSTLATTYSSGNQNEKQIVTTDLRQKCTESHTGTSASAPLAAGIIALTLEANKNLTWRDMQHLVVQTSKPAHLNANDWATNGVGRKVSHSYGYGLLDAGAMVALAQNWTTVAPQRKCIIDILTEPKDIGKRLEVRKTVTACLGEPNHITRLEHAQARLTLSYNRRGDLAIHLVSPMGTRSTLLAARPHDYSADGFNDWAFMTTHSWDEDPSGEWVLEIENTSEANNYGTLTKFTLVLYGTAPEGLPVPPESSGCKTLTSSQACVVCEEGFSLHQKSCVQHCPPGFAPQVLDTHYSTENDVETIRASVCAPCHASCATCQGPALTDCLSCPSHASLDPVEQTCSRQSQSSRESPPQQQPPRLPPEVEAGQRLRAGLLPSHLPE
Molecule,in vitro furin activity (cleavage of Boc-RVRR-MCA) (L-Bel1),in vitro furin activity (cleavage of Boc-RVRR-MCA) (D-9Rac/am),in vitro furin activity (cleavage of Boc-RVRR-MCA) (D-6R),in vitro furin activity (cleavage of Boc-RVRR-MCA) [1],Ki (Recombinant furin)
Recombinant furin,inhibited to completion in vitro furin activity,inhibited to completion in vitro furin activity,inhibited to completion in vitro furin activity,furin activity is inhibited by the specific furin inhibitor Decanoyl (d)-RVKR-chloromethylketone (CMK),–
"Decanoyl-RVKR-CH2Cl [Decanoyl-Arg-Val-Lys-Arg-CMK (FI-I, CALBIOCHEM)]",–,–,–,–,1 nM
